Data from patent publication US20240124576A1 (SHANGHAI JEMINCARE PHARMACEUTICAL, published 2024).

T1: biotinylated human Siglec-15 protein (Acrobiosystems, Cat. No. SG5-H82E9) (human, UniProt Q6ZMC9 20-263, biotinylated)
T1 construct: Bought reagent; also called HS-15 Biotin; human S-15 Biotin
T1 sequence (looked up): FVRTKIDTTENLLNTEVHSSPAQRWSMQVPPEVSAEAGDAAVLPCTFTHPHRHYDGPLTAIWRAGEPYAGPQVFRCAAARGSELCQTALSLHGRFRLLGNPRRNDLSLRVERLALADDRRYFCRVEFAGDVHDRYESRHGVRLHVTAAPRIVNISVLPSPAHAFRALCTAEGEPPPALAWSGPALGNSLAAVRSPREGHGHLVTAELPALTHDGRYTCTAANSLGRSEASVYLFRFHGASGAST

T2: human Siglec-15 (Acro, Cat. No. SG5-H52H3) (human, UniProt Q6ZMC9 20-263)
T2 construct: Bought reagent used as the analyte in the Octet assay; also called antigen
T2 sequence (looked up): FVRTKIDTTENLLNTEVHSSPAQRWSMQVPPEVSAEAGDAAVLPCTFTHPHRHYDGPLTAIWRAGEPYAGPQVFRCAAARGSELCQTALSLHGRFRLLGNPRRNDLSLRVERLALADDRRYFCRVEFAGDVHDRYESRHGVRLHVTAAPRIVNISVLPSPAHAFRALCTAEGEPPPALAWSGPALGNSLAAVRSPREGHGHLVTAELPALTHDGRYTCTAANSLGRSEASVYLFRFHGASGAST


Target: T1, biotinylated human Siglec-15 protein …
Test: flow cytometry of yeast-displayed Fab, 1 nM HS-15 Biotin 30 min, 2 h wash
Experimental: After sequencing analysis, the single clone with single sequence was identified by flow cytometry staining, incubated with 1 nM HS-15 Biotin for 30 min, respectively, and washed with 1 mL 1×PBSA for 2 h at room temperature; after flow cytometry analysis, the fluorescence intensity of different clones binding to antigen was compared.

Binder	Binding MFI [MFI]	Binding force (Displaying MFI/Binding MFI) *10000
Ab0 parent sequence displayed on yeast in the form of Fab (Fab, V domains shown) VH: EVQLLESGGGLVQPGGSLRLSCAASGFTFSSYAMSWVRQAPGKGLEWVSTISGGGGSTYYADSVKGRFTISRDNSKNTLYLQMNSLRAEDTAVYYCAKAIGSSWYSDAFDLWGQGTMVTVSS VL: DIQMTQSPSSVSASVGDRVTITCRASQDISSWLAWYQQKPGKAPKLLIYVASSLQSGVPSRFSGSGSGTDFTLTISSLQPEDFATYYCQQSYSIPYTFGQGTKLEIK	52.2	219
Ab2 (clone YC32A6) displayed on yeast in the form of Fab (Fab, V domains shown) VH: EVQLLESGGGLVQPGGSLRLSCAASGFTSSSYAMSWVRQAPGKGLEWVSTISGGGGSTYYADSVKGRFTISRDNSKNTLYLQMNSLRAEDTAVYYCAKAIGSSWYSDAFDLWGQGTMVTVSS VL: DIQMTQSPSSVSASVGDRVTITCRASQDISSWLAWYQQKPGKAPKLLIYVASSLQSGVPSRFSGSGSGTDFTLTISSLQPEDFATYYCQQSYSIPYTFGQGTKLEIK	133	441
Ab7 (clone YC33D5) displayed on yeast in the form of Fab (Fab, V domains shown) VH: EVQLLESGGGLVQPGGSLRLSCAASGFTFSSYAMSWVRQAPGKGLEWVSTISGGGVYTYYADSVKGRFTISRDNSKNTLYLQMNSLRAEDTAVYYCAKAIGSSWYSDAFDLWGQGTMVTVSS VL: DIQMTQSPSSVSASVGDRVTITCRASQDISSWLAWYQQKPGKAPKLLIYVASSLQSGVPSRFSGSGSGTDFTLTISSLQPEDFATYYCQQSYSIPYTFGQGTKLEIK	113	455
Ab5 (clone YC33D1) displayed on yeast in the form of Fab (Fab, V domains shown) VH: EVQLLESGGGLVQPGGSLRLSCAASGFTFSSYAMSWVRQAPGKGLEWVSTIYGGGGSTYYADSVKGRFTISRDNSKNTLYLQMNSLRAEDTAVYYCAKAIGSSWYSDAFDLWGQGTMVTVSS VL: DIQMTQSPSSVSASVGDRVTITCRASQDISSWLAWYQQKPGKAPKLLIYVASSLQSGVPSRFSGSGSGTDFTLTISSLQPEDFATYYCQQSYSIPYTFGQGTKLEIK	135	480
Ab6 (clone YC33G4) displayed on yeast in the form of Fab (Fab, V domains shown) VH: EVQLLESGGGLVQPGGSLRLSCAASGFTFSSYAMSWVRQAPGKGLEWVSTIWGGGGSTYYADSVKGRFTISRDNSKNTLYLQMNSLRAEDTAVYYCAKAIGSSWYSDAFDLWGQGTMVTVSS VL: DIQMTQSPSSVSASVGDRVTITCRASQDISSWLAWYQQKPGKAPKLLIYVASSLQSGVPSRFSGSGSGTDFTLTISSLQPEDFATYYCQQSYSIPYTFGQGTKLEIK	94.2	411
Ab3 (clone YC33B2) displayed on yeast in the form of Fab (Fab, V domains shown) VH: EVQLLESGGGLVQPGGSLRLSCAASGFTFSSYAMSWVRQAPGKGLEWVSTITGGGESTYYADSVKGRFTISRDNSKNTLYLQMNSLRAEDTAVYYCAKAIGSSWYSDAFDLWGQGTMVTVSS VL: DIQMTQSPSSVSASVGDRVTITCRASQDISSWLAWYQQKPGKAPKLLIYVASSLQSGVPSRFSGSGSGTDFTLTISSLQPEDFATYYCQQSYSIPYTFGQGTKLEIK	188	658

Now from value to binder:

Binding MFI [MFI]	Binding force (Displaying MFI/Binding MFI) *10000	Binder
109	465	Ab13 (clone YC45H4) displayed on yeast in the form of Fab (Fab, V domains shown) VH: EVQLLESGGGLVQPGGSLRLSCAASGFTFSSYAMSWVRQAPGKGLEWVSTITGGGESTYYADSVKGRFTISRDNSKNTLYLQMNSLRAEDTAVYYCAKAIGSSWYSDAFDLWGQGTMVTVSS VL: DIQMTQSPSSVSASVGDRVTITCRASQDISSWLAWYQQKPGKAPKLLIYVASFEHRGVPSRFSGSGSGTDFTLTISSLQPEDFATYYCQQSYSIPYTFGQGTKLEIK
105	409	Ab15 (clone YC44F5) displayed on yeast in the form of Fab (Fab, V domains shown) VH: EVQLLESGGGLVQPGGSLRLSCAASGFTFSSYAMSWVRQAPGKGLEWVSTITGGGESTYYADSVKGRFTISRDNSKNTLYLQMNSLRAEDTAVYYCAKAIGSSWYSDAFDLWGQGTMVTVSS VL: DIQMTQSPSSVSASVGDRVTITCRASQDISSWLAWYQQKPGKAPKLLIYVASYIHSGVPSRFSGSGSGTDFTLTISSLQPEDFATYYCQQSYSIPYTFGQGTKLEIK
131	289	Ab9 (clone YC29B3) displayed on yeast in the form of Fab (Fab, V domains shown) VH: EVQLLESGGGLVQPGGSLRLSCAASGFTFSSYAMSWVRQAPGKGLEWVSTISGGGGSTYYADSVKGRFTISRDNSKNTLYLQMNSLRAEDTAVYYCAKAIGSSWYSDAFDLWGQGTMVTVSS VL: DIQMTQSPSSVSASVGDRVTITCRASQDISDWLAWYQQKPGKAPKLLIYVASSLQSGVPSRFSGSGSGTDFTLTISSLQPEDFATYYCQQSYSIPYTFGQGTKLEIK

Target: T2, human Siglec-15 (Acro, Cat. No. …)
Test: BLI (Octet RED96e), antibody captured on AHC sensor, 30 nM antigen, 1:1 fit; first assay
Experimental: Affinity of Siglec-15 binding protein of the present application to human Siglec-15 (Acro, Cat. No.: SG5-H52H3) was determined using Octet RED96e (Fortebio), both of the antigen and the Siglec-15 binding protein of the present application were diluted with 1×PBST (1×PBS: Sangon, B548117-0500; 0.02% Tween 20: Sigma-aldrich, P1379). The antigen is used at a concentration of 30 nM and the Siglec-15 binding protein of the present application is used at a concentration of 33.3 nM.
First, a sample was added to a 96-well plate (Greiner bio-one, 655209) in a system of 200 μL/well. Software parameters were then set, the plate temperature was set to 30° C., and the frequency at which the standard kinetic signal was collected was 5.0 Hz. Next, the AHC sensor (Fortébio, Cat. No.: 18-0015) was pre-wetted with 1×PBST for 10 min, then the sample was loaded on the machine for detection, with each cycle containing the following steps: 1) immersing the sample in buffer for 60 s; 2) detecting whether the antigen has non-specific binding to the sensor; 3) regenerating in a 10 mM glycine solution at pH 1.7; 4) immersing in buffer for 60 s; 5) immobilizing the Siglec-15 binding protein of the present application on the sensor for 20 s; 6) immersing the sensor in buffer for 180 s; 7) binding the antigen to the Siglec-15 binding protein of the present application for 180 s; 8) dissociating the antigen with Siglec-15 binding protein of the present application for 10 min; and 9) regenerating the sensor.
The equilibrium dissociation constant (KD) of the Siglec-15 binding protein of the present application was calculated by determining the binding rate constant (kon) and dissociation rate constant (kdis) of the antigen-Siglec-15 binding protein of the present application in a 1:1 binding manner using Data Analysis 12.0 software fromx Fortebio.

Kd [nM]	koff [s⁻¹]	kon [M⁻¹ s⁻¹]	Binder
0.109	3.24e-05	298000	Ab0, purified Siglec-15 binding protein in the form of IgG1 (antibody, V domains shown) VH: EVQLLESGGGLVQPGGSLRLSCAASGFTFSSYAMSWVRQAPGKGLEWVSTISGGGGSTYYADSVKGRFTISRDNSKNTLYLQMNSLRAEDTAVYYCAKAIGSSWYSDAFDLWGQGTMVTVSS VL: DIQMTQSPSSVSASVGDRVTITCRASQDISSWLAWYQQKPGKAPKLLIYVASSLQSGVPSRFSGSGSGTDFTLTISSLQPEDFATYYCQQSYSIPYTFGQGTKLEIKR
